Assay results as given in PMC12501226.

Biological target: SARS-CoV-2 spike HexaPro protein (SARS-CoV-2)
Assay: SPR

Substance | Kd | koff | kon
ACE2 monomer (human extracellular ACE2 domain, residues 18-615, cut from ACE2-TEV-Fc) (from UniProt Q9BYF1 18-615) (domain or fragment) | 49 nM | 0.0073 s⁻¹ | 150000 M⁻¹ s⁻¹
T1A (collagen XVIII trimerization domain, 1-residue G/S linker, ACE2 18-615) (from UniProt P39060;Q9BYF1) | 0.1 nM |  | 
T3A (collagen XVIII trimerization domain, 3-residue G/S linker, ACE2 18-615) (from UniProt P39060;Q9BYF1) | 0.37 nM |  | 
T5A (collagen XVIII trimerization domain, 5-residue G/S linker, ACE2 18-615) (from UniProt P39060;Q9BYF1) | 0.69 nM |  | 
